The results in this text go back to patent US20140044713A1 (KONINKLIJKE NEDERLANDSE AKADEMIE VAN WETENSCHAPPEN, published 2014).

In test [1] the target is T1, LGR5-478 (exo domain of LGR5 without the CRL region) (UniProt O75473 22-478).
T1 construct: domain: exo domain of LGR5 without the CRL region; Purified protein
T1 sequence (looked up): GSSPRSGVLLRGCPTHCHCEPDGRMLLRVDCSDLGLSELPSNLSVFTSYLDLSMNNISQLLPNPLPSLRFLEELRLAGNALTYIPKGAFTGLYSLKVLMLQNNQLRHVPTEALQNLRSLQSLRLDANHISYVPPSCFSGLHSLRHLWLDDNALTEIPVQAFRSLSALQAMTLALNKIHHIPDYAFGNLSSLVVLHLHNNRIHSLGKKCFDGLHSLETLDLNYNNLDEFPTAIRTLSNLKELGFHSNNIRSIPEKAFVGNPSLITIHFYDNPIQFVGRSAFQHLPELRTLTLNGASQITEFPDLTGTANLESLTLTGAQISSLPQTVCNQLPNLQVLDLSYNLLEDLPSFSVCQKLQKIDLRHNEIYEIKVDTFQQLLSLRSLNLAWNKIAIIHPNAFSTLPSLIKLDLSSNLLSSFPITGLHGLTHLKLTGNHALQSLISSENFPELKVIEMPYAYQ
Description: gel filtration of purified proteins.

In a further test the target is T2, control Lgr7 (Homo sapiens (Human), UniProt Q9HBX9 1-757).
T2 construct: not shown: the sister constructs are FH-tagged
T2 sequence: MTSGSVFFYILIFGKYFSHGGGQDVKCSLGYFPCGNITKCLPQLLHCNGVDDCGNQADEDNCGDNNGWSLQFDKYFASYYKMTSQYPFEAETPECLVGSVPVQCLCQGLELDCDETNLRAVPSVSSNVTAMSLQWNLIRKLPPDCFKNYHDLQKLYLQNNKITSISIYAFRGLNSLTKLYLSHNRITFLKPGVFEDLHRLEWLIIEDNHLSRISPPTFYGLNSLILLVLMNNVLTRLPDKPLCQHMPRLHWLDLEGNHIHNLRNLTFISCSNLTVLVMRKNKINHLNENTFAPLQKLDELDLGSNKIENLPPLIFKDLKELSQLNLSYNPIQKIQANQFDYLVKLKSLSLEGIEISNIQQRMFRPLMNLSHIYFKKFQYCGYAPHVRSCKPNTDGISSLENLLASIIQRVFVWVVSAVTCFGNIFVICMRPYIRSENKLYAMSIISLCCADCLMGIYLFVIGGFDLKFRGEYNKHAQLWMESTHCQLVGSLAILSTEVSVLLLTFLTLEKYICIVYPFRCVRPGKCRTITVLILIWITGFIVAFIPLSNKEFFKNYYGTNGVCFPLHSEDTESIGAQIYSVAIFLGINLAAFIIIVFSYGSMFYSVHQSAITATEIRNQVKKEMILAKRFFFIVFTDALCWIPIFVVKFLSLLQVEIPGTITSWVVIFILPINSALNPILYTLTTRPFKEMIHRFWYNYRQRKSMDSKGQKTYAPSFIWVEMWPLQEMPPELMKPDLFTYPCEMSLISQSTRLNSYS
Description: HEK293T cells transfected with the tagged Lgr, incubated with Rspo1-Fc, protein G immunoprecipitation, anti-FLAG Western blot. From the text:
FIG. 7A: Rspondin1 binds to Lgr4, Lgr5 and Lgr6. […] Bottom: Input of tagged proteins.
In general terms: In western blotting, separated proteins are transferred to a membrane and probed.

For test [2], the target named is T3, Lgr5 ΔLRR1-17 (deletion of N-terminus and entire LRR region) (UniProt O75473 22-907).
T3 construct: whole, on cells; Deletion construct
T3 sequence (looked up): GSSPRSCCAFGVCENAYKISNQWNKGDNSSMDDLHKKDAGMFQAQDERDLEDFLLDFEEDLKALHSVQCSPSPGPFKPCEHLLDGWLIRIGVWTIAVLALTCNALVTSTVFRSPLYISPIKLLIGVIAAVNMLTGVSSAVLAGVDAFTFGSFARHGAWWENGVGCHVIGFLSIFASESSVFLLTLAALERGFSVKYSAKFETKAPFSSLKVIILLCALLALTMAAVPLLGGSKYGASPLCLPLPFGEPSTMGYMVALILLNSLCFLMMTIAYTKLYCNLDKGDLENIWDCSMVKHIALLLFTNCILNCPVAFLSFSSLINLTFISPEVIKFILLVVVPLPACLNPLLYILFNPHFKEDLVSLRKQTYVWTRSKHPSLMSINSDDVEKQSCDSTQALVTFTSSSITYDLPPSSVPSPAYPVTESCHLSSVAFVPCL
Description: right panels: incubation with Rspo1 after cell lysis, FLAG immunoprecipitation, anti-hIgG-Fc Western blot.

The target of test [3] is T4, Lgr5 ΔN (deletion of the extreme N-terminus of Lgr5, amino acids 28-50) (UniProt O75473 22-907).
T4 construct: whole, on cells; Deletion construct
T4 sequence (looked up): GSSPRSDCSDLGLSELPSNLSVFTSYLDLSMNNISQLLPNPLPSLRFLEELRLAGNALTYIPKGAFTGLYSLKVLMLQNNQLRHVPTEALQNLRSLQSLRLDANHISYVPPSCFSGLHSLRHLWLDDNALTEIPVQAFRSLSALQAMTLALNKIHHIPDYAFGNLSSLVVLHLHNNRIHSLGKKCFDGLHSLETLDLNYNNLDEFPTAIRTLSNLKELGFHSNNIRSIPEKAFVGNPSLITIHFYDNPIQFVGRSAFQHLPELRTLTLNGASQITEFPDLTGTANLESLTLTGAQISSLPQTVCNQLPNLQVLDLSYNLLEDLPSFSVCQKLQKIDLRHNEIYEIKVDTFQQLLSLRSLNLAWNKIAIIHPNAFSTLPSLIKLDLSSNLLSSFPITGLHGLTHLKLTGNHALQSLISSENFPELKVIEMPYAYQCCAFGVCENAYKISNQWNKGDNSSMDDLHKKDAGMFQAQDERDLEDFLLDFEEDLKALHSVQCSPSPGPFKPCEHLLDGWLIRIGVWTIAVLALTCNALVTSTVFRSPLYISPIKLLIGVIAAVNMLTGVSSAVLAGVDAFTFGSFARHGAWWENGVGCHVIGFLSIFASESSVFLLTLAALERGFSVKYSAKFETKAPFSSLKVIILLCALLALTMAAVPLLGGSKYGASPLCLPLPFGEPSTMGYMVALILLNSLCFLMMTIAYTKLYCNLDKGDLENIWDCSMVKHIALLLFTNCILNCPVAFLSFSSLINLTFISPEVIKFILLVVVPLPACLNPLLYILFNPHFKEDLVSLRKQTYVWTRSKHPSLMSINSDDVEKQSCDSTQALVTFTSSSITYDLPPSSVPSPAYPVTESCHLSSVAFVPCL
The description is as above.

The next test addresses T5, tagged Frizzled5 (Frz5) (UniProt Q13467 27-585, limits assumed).
T5 construct: whole, on cells; also called double-tagged Frizzled5; Frz5 bait; not shown: FLAG/HA tag
Briefly: Rspo1-Fc pull-down (proteinG beads) from transfected HEK293T cells, FLAG western blot.

T5 sequence (Q13467 27-585 limits assumed): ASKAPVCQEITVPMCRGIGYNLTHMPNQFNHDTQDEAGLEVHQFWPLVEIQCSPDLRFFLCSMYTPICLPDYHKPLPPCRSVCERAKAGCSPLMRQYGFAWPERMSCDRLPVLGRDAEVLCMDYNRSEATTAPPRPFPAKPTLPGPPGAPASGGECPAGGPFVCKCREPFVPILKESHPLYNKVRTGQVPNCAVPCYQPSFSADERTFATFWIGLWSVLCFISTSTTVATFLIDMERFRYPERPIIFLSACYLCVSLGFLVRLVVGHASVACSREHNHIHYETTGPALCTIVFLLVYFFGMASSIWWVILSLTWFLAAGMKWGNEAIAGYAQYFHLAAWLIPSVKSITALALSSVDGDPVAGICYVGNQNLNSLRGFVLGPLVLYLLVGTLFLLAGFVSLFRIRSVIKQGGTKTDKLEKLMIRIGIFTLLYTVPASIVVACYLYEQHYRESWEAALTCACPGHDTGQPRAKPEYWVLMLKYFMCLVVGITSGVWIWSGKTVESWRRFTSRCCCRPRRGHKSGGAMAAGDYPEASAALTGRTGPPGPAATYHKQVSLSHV

B1: antibody 1D9 (antibody, V domains shown)
VH: EVKLQESGAALVKPGASVKLSCKASGYTFTDYYIHWVKQSHGKSLEWIGYINPNSGYTNYNEKFKSKATLTVDKSTNTAYMELSRLTSEDSATYYCTRFGSYWYFDFWGQGTTVTVSS
VL: MTQSPTSMSISIGDRVTMNCKASQNVDSNVDWYQQKTGQSPKLLIYKASNRYTGVPDRFTGSGSGTDFTFTISNMQAEDLAVYYCMQSNSYPLTFGSGTKLEIKR
notes: Rat monoclonal antibody against human Lgr5; hybridoma LMBP 6961CB; also called Ab1; 1D9 A5
Take B1: the binding result in test [1] was “no binding”.

B2: Rspo1-Fc fusion protein (Fc fusion)
chain: SRGIKGKRQRRISAEGSQACAKGCELCSEVNGCLKCSPKLFILLERNDIRQVGVCLPSCPPGYFDARNPDMNKCIKCKIEHCEACFSHNFCTKCKEGLYLHKGRCYPACPEGSSAANGTMECSSPAQCEMSEWSPWGPCSKKQQLCGFRRGSEERTRRVLHAPVGDHAACSDTKETRRCTVRRVPCPEGQKRRKGGQGRRENANRNLARKESKEAGAGSRRRKGQQQQQQQGTVGPLTSAGPA
notes: also called Rspondin1 IgFc fusion protein; not shown: Fc (IgFc) part
Regarding B2, the binding result in the test with control Lgr7 is reported as “no binding (tested: ~1 µg/ml)”; in test [2], “no binding”; in test [3] it was “no binding”; with tagged Frizzled5 (Frz5) it was “no binding (tested: ˜1 µg/ml)”.
